# Results published in publication PMC4219644 (Journal of molecular biology, 2014).
# T1: bovine RNase A (bovine, UniProt P61823 27-150)
# T1 sequence (looked up): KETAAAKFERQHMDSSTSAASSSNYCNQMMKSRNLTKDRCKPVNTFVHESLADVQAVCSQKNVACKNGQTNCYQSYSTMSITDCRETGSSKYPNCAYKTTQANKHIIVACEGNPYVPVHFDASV
# T2: mouse RNase 1 (mouse (M. musculus), UniProt P00683 26-149)
# T2 sequence (looked up): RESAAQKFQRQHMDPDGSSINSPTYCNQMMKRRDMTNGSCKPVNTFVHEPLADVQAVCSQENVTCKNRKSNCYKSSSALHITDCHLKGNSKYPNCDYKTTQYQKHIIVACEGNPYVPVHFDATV
# T3: human RNase 1 (human, UniProt P07998 29-156)
# T3 sequence: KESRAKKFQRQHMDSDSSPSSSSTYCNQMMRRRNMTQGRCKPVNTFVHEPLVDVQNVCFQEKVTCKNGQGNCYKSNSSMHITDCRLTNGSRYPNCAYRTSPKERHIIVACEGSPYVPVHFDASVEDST
# B1: mouse ribonuclease inhibitor (natural protein, mouse (M. musculus))
# chain: MSLDIQCEQLSDARWTELLPLIQQYEVVRLDDCGLTEVRCKDISSAVQANPALTELSLRTNELGDGGVGLVLQGLQNPTCKIQKLSLQNCGLTEAGCGILPGMLRSLSTLRELHLNDNPMGDAGLKLLCEGLQDPQCRLEKLQLEYCNLTATSCEPLASVLRVKADFKELVLSNNDLHEPGVRILCQGLKDSACQLESLKLENCGITAANCKDLCDVVASKASLQELDLSSNKLGNAGIAALCPGLLLPSCKLRTLWLWECDITAEGCKDLCRVLRAKQSLKELSLASNELKDEGARLLCESLLEPGCQLESLWIKTCSLTAASCPYFCSVLTKSRSLLELQMSSNPLGDEGVQELCKALSQPDTVLRELWLGDCDVTNSGCSSLANVLLANRSLRELDLSNNCMGGPGVLQLLESLKQPSCTLQQLVLYDIYWTNEVEEQLRALEEERPSLRIIS
# B2: human ribonuclease inhibitor (natural protein, human (H. sapiens))
# chain: MSLDIQSLDIQCEELSDARWAELLPLLQQCQVVRLDDCGLTEARCKDISSALRVNPALAELNLRSNELGDVGVHCVLQGLQTPSCKIQKLSLQNCCLTGAGCGVLSSTLRTLPTLQELHLSDNLLGDAGLQLLCEGLLDPQCRLEKLQLEYCSLSAASCEPLASVLRAKPDFKELTVSNNDINEAGVRVLCQGLKDSPCQLEALKLESCGVTSDNCRDLCGIVASKASLRELALGSNKLGDVGMAELCPGLLHPSSRLRTLWIWECGITAKGCGDLCRVLRAKESLKELSLAGNELGDEGARLLCETLLEPGCQLESLWVKSCSFTAACCSHFSSVLAQNRFLLELQISNNRLEDAGVRELCQGLGQPGSVLRVLWLADCDVSDSSCSSLAATLLANHSLRELDLSNNCLGDAGILQLVESVRQPGCLLEQLVLYDIYWSEEMEDRLQALEKDKPSLRVIS
# Experiments:
# [1] = target: chicken RNase A-1 (chicken (G. gallus))
# [2] = target: anole RNase 1 (anole lizard (Anolis carolinensis))
# [3] = target: B1; assay: fluorescence dissociation-rate assay
# bovine RNase A = target: T1, bovine RNase A
# [4] = target: B2; assay: fluorescence dissociation-rate assay
# mouse RNase 1 = target: T2, mouse RNase 1
# human RNase 1 = target: T3, human RNase 1
molecule,measurement,setting,value
chicken ribonuclease inhibitor (natural protein),stoichiometry N,[1],1
anole ribonuclease inhibitor (natural protein),stoichiometry N,[2],1
"P19C human RNase 1, labeled with diethylfluorescein (DEFIA) (enzyme, UniProt P07998 29-156, looked up, diethylfluorescein (DEFIA) on the introduced cysteine 19) KESRAKKFQRQHMDSDSSCSSSSTYCNQMMRRRNMTQGRCKPVNTFVHEPLVDVQNVCFQEKVTCKNGQGNCYKSNSSMHITDCRLTNGSRYPNCAYRTSPKERHIIVACEGSPYVPVHFDASVEDST",binding result,[3],binds
"bovine ribonuclease inhibitor (natural protein, bovine (B. taurus)) MKLDIQCEQLSDARWTELLPLIQQYEVVRLDDCGLTEVRCKDIGSALQANASLTELSLRTNELGDGGVLLVLQGLQSPTCKIQKLSLQNCCLTEAGCGVLPGVLRSLPTLRELHLSDNPLGDAGLRLLCEGLLDPRCRLEKLQLEYCSLTAASCEPLAAVLRATRDLKELVVSNNDIGEAGVQALCRGLAESACQLETLKLENCGLTAANCKDLCGIVASQASLKDLDLGSNRLGDAGLAELCPGLLSPSSQLRTLWLWECDLTVSGCRELCRVLQAKEALKELSLAGNSLGDEGAQLLCESLLQPGCQLESLWVKSCGFTAACCQHFSSMLTQNKHLLELQLSSNPLGDAGVHVLCQALGQPGTVLRVLWVGDCELTNSSCGGLASLLLASPSLRELDLSNNGLGDPGVLQLLGSLEQPACSLEQLVLYDIYWTEAVDERLRAVEESKPGLRIIS",stoichiometry N,bovine RNase A,1
"S19C mouse RNase 1, labeled with diethylfluorescein (DEFIA) (enzyme, mouse (M. musculus), UniProt P00683 26-149, looked up, diethylfluorescein (DEFIA) on the introduced cysteine 19) RESAAQKFQRQHMDPDGSCINSPTYCNQMMKRRDMTNGSCKPVNTFVHEPLADVQAVCSQENVTCKNRKSNCYKSSSALHITDCHLKGNSKYPNCDYKTTQYQKHIIVACEGNPYVPVHFDATV",binding result,[4],binds
B1,stoichiometry N,mouse RNase 1,1
"A19C bovine RNase 1, labeled with diethylfluorescein (DEFIA) (enzyme, UniProt P61823 27-150, looked up, diethylfluorescein (DEFIA) on the introduced cysteine 19) KETAAAKFERQHMDSSTSCASSSNYCNQMMKSRNLTKDRCKPVNTFVHESLADVQAVCSQKNVACKNGQTNCYQSYSTMSITDCRETGSSKYPNCAYKTTQANKHIIVACEGNPYVPVHFDASV",binding result,[4],binds
same,binding result,[3],binds
B2,stoichiometry N,human RNase 1,1
